{
  "source": "paper PMC9321335",
  "about": "“Palmitic Acid-Conjugated Radiopharmaceutical for Integrin αvβ3-Targeted Radionuclide Therapy” (Pharmaceutics, 2022)",
  "key": {"[1]": {"design": "species or system C57BL/6 mice", "settings": "mouse, in vivo", "experimental": "Female KM mice were randomly divided into three groups (n = 5). […] Blood samples obtained from the canthus vein were collected at different time points post injection (p.i.), weighed, and evaluated using a γ-counter. The results are presented as the percentage injected activity per gram (%IA/g). Nonlinear regression (curve fit) followed by two phase decay was performed using GraphPad Prism version 9.0.0 for Windows, GraphPad Software, San Diego, CA, USA, www.graphpad.com (accessed on 22 May 2022). And then the half-lives values were calculated and determined. Blood clearance studies were performed in normal KM mice. […] Blood clearance studies were also performed in C57BL/6 mice."}, "[2]": {"assay": "in vivo", "design": "species or system C57BL/6 mice", "settings": "C57BL/6, mouse, 37 MBq, total radioactivity", "experimental": "SPECT/CT imaging was performed using a small animal SPECT/CT imaging system (Mediso Inc., Budapest, Hungary). Each mouse bearing MC38 tumors was injected with a radiotracer at a radioactivity of 37 MBq/1 mCi. The mice were imaged at 1, 4, 12, 24, and 72 h after injection of ^177Lu-Palm-3PRGD2 (37 MBq, 2.7 nmol), and the mice in the blocking study were imaged at 1 h p.i. […] Pinhole SPECT images (peak, 56.1, 112.9, and 208.4 keV; 20% width; frame time, 25 s) were acquired, and CT images were subsequently acquired (50 kV; 0.67 mA; rotation, 210°; exposure time, 300 ms). The raw data were reconstructed in a whole-body region. The SPECT and CT images were then fused using Nucline v 2.01 (Mediso Inc., Budapest, Hungary). The maximum intensity projection (MIP) was determined for whole-body imaging from the posterior view."}, "[3]": {"assay": "physchem", "assay_type": "physicochemical", "experimental": "Briefly, the radiopharmaceuticals were prepared and purified with Sep-Pak-C18 cartridges and then dissolved in a mixed solution of 5 mL n-octanol and 5 mL PBS. After vortexing for 1 h, the mixture was centrifuged at 10,000 rpm for 10 min. Samples (100 μL, n = 4) from the n-octanol and PBS components were collected and counted using a γ-counter. The […] were calculated as the logarithm of the n-octanol/PBS ratio."}, "[4]": {"design": "species or system KM mice", "settings": "mouse, in vivo, iv", "experimental": "Female KM mice were randomly divided into three groups (n = 5). […] Blood samples obtained from the canthus vein were collected at different time points post injection (p.i.), weighed, and evaluated using a γ-counter. The results are presented as the percentage injected activity per gram (%IA/g). Nonlinear regression (curve fit) followed by two phase decay was performed using GraphPad Prism version 9.0.0 for Windows, GraphPad Software, San Diego, CA, USA, www.graphpad.com (accessed on 22 May 2022). And then the half-lives values were calculated and determined."}},
  "note": "Read-outs that look alike come from different tables or passages of the source.",
  "data": [
    {"smiles": "CCCCCCCCCCCCCCCC(=O)N[C@@H](CCC(=O)NCCCC[C@H](NC(=O)CN1CCN(CC(=O)O)CCN(CC(=O)O)CCN(CC(=O)O)CC1)C(=O)NCCOCCOCCOCCOCCC(=O)N[C@@H](CCC(=O)NCCOCCOCCOCCOCCC(=O)NCCCC[C@@H]1NC(=O)[C@@H](Cc2ccccc2)NC(=O)[C@H](CC(=O)O)NC(=O)CNC(=O)[C@H](CCCNC(=N)N)NC1=O)C(=O)NCCOCCOCCOCCOCCC(=O)NCCCC[C@@H]1NC(=O)[C@@H](Cc2ccccc2)NC(=O)[C@H](CC(=O)O)NC(=O)CNC(=O)[C@H](CCCNC(=N)N)NC1=O)C(=O)O", "note": "[^177Lu-Palm-3PRGD2, [^177Lu]Lu-DOTA-Palm-3PRGD2, metal not drawn]", "values": [
      {"measurement": "Half-Life (T1/2α)", "setting": "[1]", "result": 2.08, "unit": "min"},
      {"measurement": "Half-Life (T1/2β)", "setting": "[1]", "result": 63.71, "unit": "min"},
      {"measurement": "tissue uptake per volume at 1 h", "setting": "[2]", "result": "15 ± 0.13", "unit": "%ID/mL"},
      {"measurement": "logD", "setting": "[3]", "result": "-1.25 ± 0.07"},
      {"measurement": "Half-Life (T1/2α)", "setting": "[4]", "result": 4.49, "unit": "min"},
      {"measurement": "Half-Life (T1/2β)", "setting": "[4]", "result": 73.42, "unit": "min"}
    ]}
  ]
}
